Assay results taken from US20110008369A1 (Merck Sharp & Dohme, published 2011).

Legend:
[1] = target: T1, homologous Fc (R&D Systems), Fc control surface (human, UniProt P01857-1 100-330 = IgG part, limits assumed); assay: SPR (Biacore 2000), Fc immobilised on a CM5 chip
T1 construct: domain: Fc; Counter-screen surface in the SPR assay; also called human Fc portion
From the text: Biacore® instruments incorporate microfluidics technology and surface plasmon resonance (SPR). The angle of polarized light reflecting from the side of a gold-coated sensor opposite to the solution phase is a function of the evanescent wave extending into the solution phase and sensitive to the refractive index near that interface. This refractive index is proportional to the mass density of adsorbates (e.g., an antigen or antibody) near the sensor chip interface, and reported in Response Units. […] Time-resolved signals were acquired from all surfaces simultaneously, and the signal from the blank control surface was subtracted as a negative control.

[2] = target: T2, human PD-1 (Programmed Cell Death 1), expressed on cells (human, UniProt Q15116 25-288); assay: cell binding; 0.2 ug/ml IgG on activated human CD4+ cells, 37 C
T2 construct: also called human PD-1 on 293 cells
T2 sequence (Q15116 25-288 limits assumed): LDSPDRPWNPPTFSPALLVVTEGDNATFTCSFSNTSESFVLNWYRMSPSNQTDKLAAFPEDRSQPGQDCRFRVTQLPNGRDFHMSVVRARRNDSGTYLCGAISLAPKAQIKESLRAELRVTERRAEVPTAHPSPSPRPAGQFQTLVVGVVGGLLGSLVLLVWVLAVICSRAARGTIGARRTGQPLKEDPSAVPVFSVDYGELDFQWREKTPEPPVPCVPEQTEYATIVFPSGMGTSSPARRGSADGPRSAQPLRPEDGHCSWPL
Method: (§1) 293 cells were transfected to express PD-1 on their cell membranes. Human CD4⁺ cells were activated by incubation with anti-CD3/anti-CD28 beads (approximately 1 bead: 1-2 cells) for 48-72 hours at 37° C. Rhesus CD4⁺ cells (2×10⁶ cells/mL) were activated by incubation in plates coated with 1 μg/mL anti-CD3/anti-CD28 for 24-72 hours at 37° C.

[3] = target: T3, rhesus PD-1 naturally expressed on activated rhesus CD4+ cells (rhesus macaque, UniProt B0LAJ2 25-288); assay: cell binding; 1.0 ug/ml IgG on activated rhesus CD4+ cells, 37 C
T3 sequence (B0LAJ2 entry or part of it limits assumed): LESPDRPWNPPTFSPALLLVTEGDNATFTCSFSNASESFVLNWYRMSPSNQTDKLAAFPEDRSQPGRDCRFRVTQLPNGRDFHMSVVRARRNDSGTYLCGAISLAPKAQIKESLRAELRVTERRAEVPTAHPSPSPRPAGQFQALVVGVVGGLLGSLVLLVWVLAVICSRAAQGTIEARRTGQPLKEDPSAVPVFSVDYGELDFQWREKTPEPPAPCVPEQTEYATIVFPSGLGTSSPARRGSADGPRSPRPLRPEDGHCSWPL
Method: as §1

[4] = target: T2, human PD-1 (Programmed Cell Death 1), …; assay: inhibition of recombinant PD-L1/Fc binding to 293 cells expressing human PD-1 by 20 ug/ml IgG, 4 C
Method: as §1

[5] = target: T2, human PD-1 (Programmed Cell Death 1), …; assay: inhibition of recombinant PD-L1/Fc binding to activated human CD4+ cells by 0.2 ug/ml IgG, 37 C (mean of 2)
Method: as §1

[6] = target: T3, rhesus PD-1 naturally expressed on …; assay: inhibition of recombinant PD-L1/Fc binding to activated rhesus CD4+ cells by 0.2 ug/ml IgG, 37 C (mean of 2)
Method: as §1

[7] = target: T4, recombinant human PD-1/Fc fusion protein (R&D Systems) (human, UniProt Q15116 25-167); assay: SPR (Biacore T100), monomeric Fab over covalently immobilised PD-1/Fc; range of fit Kd
T4 construct: Bought protein; also called immobilized PD-1; not shown: human Fc portion of the bought fusion protein
T4 sequence (Q15116 25-167 limits assumed): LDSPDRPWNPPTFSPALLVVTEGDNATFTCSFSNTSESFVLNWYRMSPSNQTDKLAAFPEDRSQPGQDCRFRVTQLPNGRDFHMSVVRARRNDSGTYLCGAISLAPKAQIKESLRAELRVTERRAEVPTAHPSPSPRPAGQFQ
From the text: Fractions from the purification column were collected and tested in the Caliper LabChip® system. Only fractions containing pure monomeric Fabs were selected for SPR analysis. Beginning with concentrations determined from the Caliper LabChip®, dilution series were made for each Fab and tested on a Biacore® T100 with the standard kinetic affinity wizard against covalently immobilized PD-1/Fc fusion protein.

[8] = target: T4, recombinant human PD-1/Fc fusion …; assay: solution-phase ELISA of IgG with PD-1/Fc; mean ± standard error of the mean
Method: High-binding 96-well ELISA plates were coated with 50 μL 2 μg/mL PD-1/Fc overnight. After washing and blocking, 50 μL of each PD-1/Fc: IgG mixture was transferred to the ELISA plate, incubated for 30 minutes, washed, incubated with goat anti-mouse antibody conjugated to HRP (human absorbed) for one hour, washed, developed with 10-Acetyl-3,7-dihydroxyphenoxazine ([…]) for three minutes, and read on a fluorescent plate reader. All incubations occurred at room temperature. Data were analyzed as described in K. High et al. Several replicates were conducted on multiple plates and multiple days and analyzed independently to determine a range of experimental equilibrium affinity Kd values.

Binder | MFI [3] [MFI] | % inhibition [6] [%] | Kd [7] [nM] | Kd [8] [nM] | binding result [1] | MFI [2] [MFI] | % inhibition [4] [%] | % inhibition [5] [%]
monomeric Fab of mAb 3H4 (Fab, V domains shown, also called 3H4 Fab) VH: QIQLQQSGPELVKPGASVKISCKASGYTFTDYYINWVKQKPGQGLEWIGWIYPGSVNTKYNEKFRGKATLTVDTSSSTAYIQLSGLTSEDTAVYFCARYSNWFFDVWGAGTAVTVS VL: DIVMTQSPSSLSASLGERVSLTCRASQEISGYLSWLQQKPDGTIKRLIYAASTLDSGVPKRFSGSRSGSDYSLSISSLESEDFADYYCLQYASYPYTFGGGTKLEIKR | – | – | 63 to 77 | – | – | – | – | –
mAb 3H4 (antibody, V domains shown, Murine IgG from a hybridoma) VH: QIQLQQSGPELVKPGASVKISCKASGYTFTDYYINWVKQKPGQGLEWIGWIYPGSVNTKYNEKFRGKATLTVDTSSSTAYIQLSGLTSEDTAVYFCARYSNWFFDVWGAGTAVTVS VL: DIVMTQSPSSLSASLGERVSLTCRASQEISGYLSWLQQKPDGTIKRLIYAASTLDSGVPKRFSGSRSGSDYSLSISSLESEDFADYYCLQYASYPYTFGGGTKLEIKR | – | – | – | 0.011 | no binding (tested: 5 ug/mL (hybridoma supernatant)) | 130 | – | –
mAb 1.8A10 (antibody, V domains shown, Murine IgG from a hybridoma) VH: EVQLVESGGGLVKPGGSLKLSCAASGFTFSNYDMSWIRQTPEKRLEWVAYISGGGGNTYYPDTLKGRFTISRDNAKNTLYLQMSSLKSEDTAMFYCVRISLTGIFDYWGQGTTLTVSS VL: DVLMTQTPLSLPVSLGDQASISCRSSQSIVQSNGNTYLEWYLQKPGQSPKLLIYKVSNRFSGVPDRFSGSGSGTDFTLKISRVEAEDLGVYYCFQGSHVPWTFGGGTKLEIKR | 310 | 24 | – | 0.44 | no binding (tested: 5 ug/mL (hybridoma supernatant)) | 129 | 99.4 | 51.7
monomeric Fab of mAb 1B8 (Fab, V domains shown, also called 1B8 Fab) VH: EVQLVLSGGGFVQPGGSLKLSCAASGFTFSSYAMSWVRQNPERRLVWVATITGGGRNTYYPDSVKGRFTISRDNAKNTLYLQMSSLRSEDTAMYYCTRQGYDGYTWFAYWGQGTLVTVS VL: not shown | – | – | 5.3 to 7 | – | – | – | – | –
mAb 1B8 (antibody, V domains shown, Murine IgG from a hybridoma; also called murine 1B8; fully murine 1B8 mAb) VH: EVQLVLSGGGFVQPGGSLKLSCAASGFTFSSYAMSWVRQNPERRLVWVATITGGGRNTYYPDSVKGRFTISRDNAKNTLYLQMSSLRSEDTAMYYCTRQGYDGYTWFAYWGQGTLVTVS VL: not shown | 1190 | 82.3 | – | 0.03 | no binding (tested: 5 ug/mL (hybridoma supernatant)) | 145 | 97.6 | 82.1
mAb 2.3A9 (antibody, V domains shown, Murine IgG from a hybridoma) VH: QVQLQQSDAELVKPGTSVKISCKASGYTFTDHAIHWLKQEPDQGLEWIGYISPGYGDIEYNEKFKGKATLTADKSSSTAYMQLSSLTSEDSAVYFCKVTTGYWGQGTTLTVS VL: not shown | – | – | – | – | no binding (tested: 5 ug/mL (hybridoma supernatant)) | 134 | – | –

The next lines start with results.

MFI [3] [MFI] | % inhibition [6] [%] | Kd [7] [nM] | Kd [8] [nM] | Binder | binding result [1] | MFI [2] [MFI] | % inhibition [4] [%] | % inhibition [5] [%]
1240 | 75.3 | – | – | mAb 20B3.1 (antibody, V domains shown, Murine IgG from a hybridoma) VH: EVKLVESGGGLVKPGGSLKLSCAASGFTFSSFGMSWVRQTPEKRLEWVATISGGGSNTYYPDSVKGRFTISRDNAKNNLYLQMTSLTSEDTALYYCTRIYDVAWFAYWGQGTLVTVS VL: not shown | no binding (tested: 5 ug/mL (hybridoma supernatant)) | 154 | 98.2 | 59.6
655 | 25.5 | – | – | mAb 7G3 (antibody, V domains shown, Murine IgG from a hybridoma) VH: QVQLQQSGTELVRPGVSVKISCKGSGYSFTDYALHWMKQSHAKSLEWIGVISTHYGDTVYNQRFKGKATMTVDKSSSTAYMELARLTSEDSAIYYCAREGYGSLFYFDQWGQGTPLTVS VL: CLMTQTPLSLPVSLGDQASISCRSSQTIVHSDGNTYLEWYLQKSGQSPKLLIYKVSNRFSGVPDRFSGSGSGTDFTLKISRVEAEDLGVYYCFQGSHVPYTFGGGTRLEIRR | no binding (tested: 5 ug/mL (hybridoma supernatant)) | 129 | 92.7 | 57.8
– | – | 34 to 43 | – | monomeric Fab of mAb 1.8A10 (Fab, V domains shown, also called 1.8A10 Fab) VH: EVQLVESGGGLVKPGGSLKLSCAASGFTFSNYDMSWIRQTPEKRLEWVAYISGGGGNTYYPDTLKGRFTISRDNAKNTLYLQMSSLKSEDTAMFYCVRISLTGIFDYWGQGTTLTVSS VL: DVLMTQTPLSLPVSLGDQASISCRSSQSIVQSNGNTYLEWYLQKPGQSPKLLIYKVSNRFSGVPDRFSGSGSGTDFTLKISRVEAEDLGVYYCFQGSHVPWTFGGGTKLEIKR | – | – | – | –
812 | 56.5 | – | – | mAb 1G7 (antibody, V domains shown, Murine IgG from a hybridoma) VH: EIQLQQSGPELVKPGASVKVSCKASGYAFTSYNIYWVKQSHGKSLEWIGYIDLYNGDTSYNEKFKGKATLTVDKSASTAYMHLNSLTSEDSAVYYCSREGRLSFDYWGQGTLVTVSA VL: DIVLTQSPASLAVSLGQRATISCRASESVDSYGNSFMNWYQQKPGQPLKLLIYLASNLDSGVPARFSGSGSGTDFSLTIDPVEADDPATYYCQQNNEVPLTFGAGTKLELKR | no binding (tested: 5 ug/mL (hybridoma supernatant)) | 137 | 98.8 | 74.3
